This is an account of results in publication PMC10628517, “CXCL17 binds efficaciously to glycosaminoglycans with the potential to modulate chemokine signaling” (Frontiers in Immunology, 2023).

This data set deals with the molecule itself. Put plainly: reducing SDS-PAGE and Western blot; serial dilutions of recombinant CXCL17 (24–119), 1.25–10 μM, resolved by reducing SDS-PAGE and probed with anti-CXCL17; bands of 14 kDa and 28 kDa read as monomer and dimer; the 28-kDa species seen at 5 μM and above. In general terms: Immunoblotting shows a protein as a band on a membrane.

B1: recombinant human CXCL17 (24–119) (natural protein, UniProt Q6UXB2 24-119, looked up)
chain: LNPGVARGHRDRGQASRRWLQEGGQECECKDWFLRAPRRKFMTVSGLPKKQCPCDHFKGNVKKTRHQRHHRKPNKHSRACQQFLKQCQLRSFALPL
notes: human CXCL17, residues 24-119 (Leu24–Leu119), the commercially available form without the predicted signal peptide; UniProt Q6UXB2; The text calls the protein on the blots commercially available; also called Leu24–Leu119 form of CXCL17; source: bought: R&D Systems; produced in E. coli
As to B1, the “ratio of monomer:dimer” value was ~3 monomer:dimer.
